Among the data in patent US20250361282A1 are EC50, fluorescence signal of rat NPR-A / CNGA2 (cGMP biosensor) / GCaMP6 CHO reporter cells and EC50, luminescence signal of rat NPR-B reporter cells values, retold here.

One assay has as its target rat NPR-A (rat) (UniProt P18910). Nature of the assay: cell-based or functional assay.
For another assay, the target named is rat NPR-B (rat) (UniProt P16067). Nature of the assay: cell-based or functional assay.
Sequence of rat NPR-B (rat) (P16067 17-1047): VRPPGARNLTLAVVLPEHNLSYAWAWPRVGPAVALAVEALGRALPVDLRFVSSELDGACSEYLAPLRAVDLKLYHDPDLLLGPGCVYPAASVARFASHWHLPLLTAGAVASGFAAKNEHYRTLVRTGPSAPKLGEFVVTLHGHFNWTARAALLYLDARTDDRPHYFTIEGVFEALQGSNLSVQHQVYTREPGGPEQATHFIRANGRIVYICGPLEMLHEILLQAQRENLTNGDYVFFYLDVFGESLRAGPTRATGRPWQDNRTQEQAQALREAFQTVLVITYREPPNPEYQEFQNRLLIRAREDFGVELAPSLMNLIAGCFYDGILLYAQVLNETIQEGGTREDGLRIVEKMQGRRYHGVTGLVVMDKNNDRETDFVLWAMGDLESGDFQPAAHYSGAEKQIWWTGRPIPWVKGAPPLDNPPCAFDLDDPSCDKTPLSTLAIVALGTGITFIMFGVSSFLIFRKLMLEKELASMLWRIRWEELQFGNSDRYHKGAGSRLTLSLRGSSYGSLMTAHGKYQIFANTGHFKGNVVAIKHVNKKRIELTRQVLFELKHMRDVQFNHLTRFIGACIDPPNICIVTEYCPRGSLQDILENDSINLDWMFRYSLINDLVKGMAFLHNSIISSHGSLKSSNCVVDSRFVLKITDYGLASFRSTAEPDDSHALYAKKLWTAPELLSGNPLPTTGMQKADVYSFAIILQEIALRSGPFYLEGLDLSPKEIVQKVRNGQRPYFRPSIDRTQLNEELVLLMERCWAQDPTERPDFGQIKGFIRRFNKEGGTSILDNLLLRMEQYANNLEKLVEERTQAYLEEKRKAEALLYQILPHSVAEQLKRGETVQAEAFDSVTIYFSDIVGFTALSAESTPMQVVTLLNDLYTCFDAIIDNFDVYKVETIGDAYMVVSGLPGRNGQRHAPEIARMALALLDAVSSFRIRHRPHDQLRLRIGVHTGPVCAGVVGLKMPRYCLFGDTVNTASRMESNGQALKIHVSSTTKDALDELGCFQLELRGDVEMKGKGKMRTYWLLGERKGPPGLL

Sequence of rat NPR-A (rat) (P18910 29-1057): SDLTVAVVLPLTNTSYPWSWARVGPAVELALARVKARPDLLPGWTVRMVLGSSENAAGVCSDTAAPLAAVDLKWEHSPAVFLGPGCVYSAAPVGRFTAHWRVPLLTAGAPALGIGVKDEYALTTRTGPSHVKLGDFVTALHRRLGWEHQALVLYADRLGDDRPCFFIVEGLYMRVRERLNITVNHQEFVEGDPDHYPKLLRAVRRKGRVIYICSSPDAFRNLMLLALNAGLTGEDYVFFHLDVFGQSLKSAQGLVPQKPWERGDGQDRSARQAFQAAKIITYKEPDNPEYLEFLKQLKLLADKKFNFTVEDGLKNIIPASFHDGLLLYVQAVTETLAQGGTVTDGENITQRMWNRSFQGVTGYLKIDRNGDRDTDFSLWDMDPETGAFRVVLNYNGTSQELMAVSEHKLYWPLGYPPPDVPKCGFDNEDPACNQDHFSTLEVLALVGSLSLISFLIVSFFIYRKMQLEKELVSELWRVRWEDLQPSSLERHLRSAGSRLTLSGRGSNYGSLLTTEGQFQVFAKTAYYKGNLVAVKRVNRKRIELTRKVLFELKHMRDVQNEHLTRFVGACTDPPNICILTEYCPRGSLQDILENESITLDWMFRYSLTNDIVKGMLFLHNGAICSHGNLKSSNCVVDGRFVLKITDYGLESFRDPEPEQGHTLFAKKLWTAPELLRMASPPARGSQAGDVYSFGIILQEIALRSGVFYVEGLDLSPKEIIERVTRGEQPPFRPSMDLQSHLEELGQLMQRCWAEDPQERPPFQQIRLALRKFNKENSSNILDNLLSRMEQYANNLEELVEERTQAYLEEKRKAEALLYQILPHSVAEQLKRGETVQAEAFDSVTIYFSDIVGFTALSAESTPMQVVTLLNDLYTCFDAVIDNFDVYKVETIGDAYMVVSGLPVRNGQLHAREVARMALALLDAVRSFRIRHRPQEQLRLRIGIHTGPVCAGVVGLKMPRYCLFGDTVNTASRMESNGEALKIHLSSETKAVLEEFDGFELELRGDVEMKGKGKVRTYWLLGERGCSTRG

“BNP (Bachem, H-5968) (from UniProt P13205 90-121) (peptide)” returned an EC50, fluorescence signal of rat NPR-A / CNGA2 (cGMP biosensor) / GCaMP6 CHO reporter cells in the assay with rat NPR-A (rat) of 2.9 nM.

On to “CNP (Bachem, H-1296) (from UniProt P23582 105-126) (peptide)”, for which the EC50, luminescence signal of rat NPR-B reporter cells with rat NPR-B (rat) came out at 0.024 nM.

Substance “ANP (Bachem, H-2100) (from UniProt P01161 123-150) (peptide)” returned an EC50, fluorescence signal of rat NPR-A / CNGA2 (cGMP biosensor) / GCaMP6 CHO reporter cells in the assay with rat NPR-A (rat) of 0.22 nM.
